Assay [1] deals with lesions in RPE/Choroid of the JR5558 mouse. Nature of the assay: JR5558 mouse lesion formation. It counts as in vivo. The settings on record: 50 mg/kg IP every 3 days from D14, eyes harvested D25, vs IgG. The protocol:
15C4 or IgG at 50 mg/kg was administered IP every 3 days from D14. Eyes were harvested on D25 and RPE/Choroid stained with Collagen IV. The number of lesions was counted and data quantified for the two groups.

Assay [2] concerns LL/2 tumours. Description: LL/2 tumour vasculature. Type of assay: in vivo, mouse. Conditions: wild type mice, 50 mg per kg. An excerpt: B16/F0 and LL/2 […] tumour cell lines were grafted into wild type and Lrg1 knockout mice.
The subject of assay [3] is explanted E16.5 mouse metatarsals. Nature of the assay: Mouse metatarsal angiogenesis assay (ex vivo). Conditions: mAbs at 100 nM, 12 days of culture. Type of assay: cell-based. The protocol:
In this assay the function-blocking activity of the mAbs was tested, using explanted E16.5 mouse metatarsals. Vessels grow spontaneously from the embryonic bones to form a 2D-network that can be readily quantified with regard to, for example, vessel length, calibre and branch points. In the mouse metatarsal assay mAbs were added at 100 nM to the culture medium during 12 days of culture, with replenishment of media and mAbs every two days. At the end of the experiment samples were fixed and immunostained for Platelet endothelial cell adhesion molecule (PECAM), and vascular networks were quantified using Imaris software, with normalization to a phosphate buffered saline (PBS) control.

Assay [4] relates to laser-induced choroidal neovascularisation. Description: Mouse model of laser-induced CNV. The settings on record: intraocular injection at lasering, FFA after 7 days. Type of assay: in vivo. The protocol: The images on the left of FIG. 17A show a typical wild-type mouse retina under normal illumination (Fundus), and under fluorescence illumination, 7 days after three laser burns were administered to the retinal pigment epithelium. Fluorescence images were captured ˜60 seconds after systemic dosing with fluorescein (Early Phase FFA) and again after ˜7 minutes (Late Phase FFA). At the time of lasering, animals received intraocular injections of either control IgG (top panels) or 15C4 (lower panels). The Early Phase FFA images show the size of the lesions, and the Late Phase images show leakage of fluorescein into the retina. Lesion sizes were quantified for 15C4 at 2.5, 5 and 10 μg doses, and also Eylea at 2 and 4 μg, and the % blocking is a measure of average lesion size relative to that observed in the controls. On the far right a similar analysis was undertaken using Eylea and Magacizumab (both at 2.1 μg) alone and in combination.
Wild type C57B6 mice were anaesthetized and received intravitreal injections of various doses of either Magacizumab, Eylea, or both in combination, immediately following laser photocoagulation of the retinal pigment epithelium. After 7 days (to allow the vascular lesions to form) the mice were again anaesthetized and examined by fluorescein angiography (FFA). Early phase FFA images (taken after 90 s) show the degree of vascularization at the lesion site. Measurement of the lesion area in the early phase images permits quantification in which percentage lesion size is normalized against the IgG4 control (FIG. 18).

Assay [5] relates to Lrg1 (rhLrg1 and liver extracts from mouse, rat, rabbit, monkey, dog and cat). Nature of the assay: Species cross-reactivity ELISA on liver extracts. Type of assay: binding. The settings on record: mAb at 100 nM. The protocol:
Species cross-reactivity was carried out by ELISA in a protocol in which multiwall plates were coated with rhLrg1, and liver extracts from mouse, rat, rabbit, monkey, dog and cat.
On the technique in general: An ELISA detects its analyte on a solid surface through an enzyme-linked reagent.

In assay [6] the target is T1, human Lrg1 (Homo sapiens, UniProt P02750).
T1 sequence (P02750 36-347): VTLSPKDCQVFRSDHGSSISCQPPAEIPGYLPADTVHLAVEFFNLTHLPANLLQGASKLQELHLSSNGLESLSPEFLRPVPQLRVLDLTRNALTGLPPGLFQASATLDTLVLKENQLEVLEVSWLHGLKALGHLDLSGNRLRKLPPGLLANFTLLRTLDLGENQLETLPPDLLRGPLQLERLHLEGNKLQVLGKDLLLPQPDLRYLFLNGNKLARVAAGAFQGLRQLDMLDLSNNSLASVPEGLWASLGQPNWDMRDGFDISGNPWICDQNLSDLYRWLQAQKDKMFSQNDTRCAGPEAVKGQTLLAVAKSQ
Description: Western blot specificity for human Lrg1. It counts as binding. The settings on record: conditioned medium from MDA-MB cells, human vitreous, whole human serum. The protocol: To evaluate the specificity of the lead mAbs for human Lrg1 western blot analysis of each was performed against conditioned medium from the MDA-MB human tumour cell line, samples of human vitreous humour, and samples of whole human serum.
(A western blot detects proteins with antibodies after separation by electrophoresis.)

This note sets out measurements from patent publication US10556007B2, “Antibody which binds Lrg1 and methods of use” (UCL Business PLC, priority 2015, dated 2020).

“And” between values parts separate entries of the source, which are not always exact repeats. Equal entries are not always repeated. “Also recorded” adds a separate entry of the source.

B1: 15C4: mouse monoclonal antibody against human Lrg1, VH SEQ ID NO: 1, VL SEQ ID NO: 2 (antibody, V domains shown)
VH: QVQLQQSGDEVVRPGSSVKISCKASGYTFSGYWMNWVKQRPGQGLQWIGQIYPGDGDTNYNGKFKGKATLTADKSSSTAYMQLSTLTSEDSAIYFCARSITTVVLDYWGQGTTLTVSS
VL: DIVLTQSPVSLAVSLGQRATISCRASQSVSTSGYSFMHWYQQKPGQPPKFLIKYASNLESGVPARFSGSGSGTDFTLNIHPVEEEDTATYYCQHSWEMPLTFGAGTKLELK
modifications: 15C4 Variable Heavy Chain; 15C4 Variable light chain
On to B1, for which the number of lesions entry in assay [1] is listed as “reduces lesion formation; also recorded: significantly fewer lesions”. Besides, in assay [2], the “replication of Lrg1 knockout tumour vessel phenotype” value was “These results were mimicked”. In assay [3], the “inhibition of angiogenesis (in words)” value is “inhibited angiogenesis”. Also, the inhibition of angiogenesis in assay [3] (normalised to PBS control, 0.1 µM) is ~40% and > 25%. In addition, the lesion formation entry in assay [4] was “inhibited lesion formation; also recorded: inhibit lesion formation with similar efficacy to the VEGF blocker Eylea”. Also, the “cross-reactivity with rodent Lrg1” value in assay [5] is recorded as “None of antibodies 4H2, 3A11 or 15C4 exhibited strong cross-reactivity with rodent Lrg1”. Further, the “recognition of Lrg1 band on western blot” value in assay [6] is “strongly recognise a single band of Lrg1 at 50 kD in the conditioned medium and vitreous”.
